Drawing on article PMC9800720, “Size-advantage of monovalent nanobodies against the macrophage mannose receptor for deep tumor penetration and tumor-associated macrophage targeting” (Theranostics, 2023), this text covers Kd for one molecule.

This experiment has as its target T1, recombinant murine MMR protein (Macrophage Mannose Receptor, CD206) (Mus musculus, UniProt Q61830).
T1 construct: Macrophage Mannose Receptor (MMR, CD206), mouse, recombinant protein of R&D systems, catalogue 2535-MM; also called recombinant mouse MMR protein; MMR Ag; source: bought: R&D systems (2535-MM)
Description: SPR; Biacore T200; recombinant murine MMR immobilised on a CM5 chip by amine coupling at pH 5; Nbs injected in three-fold dilutions from 100 to 0.4 nM; 25 °C, HEPES buffered saline, 30 µL/min; association 180 s, dissociation 600 s; table gives two sets of rate constants (ka1/kd1, ka2/kd2); affinity of the bivalent Nb called apparent. The settings on record: both partners purified. On the technique in general: Surface plasmon resonance follows binding to a sensor surface in real time, without labels.

T1 sequence (Q61830 20-1388): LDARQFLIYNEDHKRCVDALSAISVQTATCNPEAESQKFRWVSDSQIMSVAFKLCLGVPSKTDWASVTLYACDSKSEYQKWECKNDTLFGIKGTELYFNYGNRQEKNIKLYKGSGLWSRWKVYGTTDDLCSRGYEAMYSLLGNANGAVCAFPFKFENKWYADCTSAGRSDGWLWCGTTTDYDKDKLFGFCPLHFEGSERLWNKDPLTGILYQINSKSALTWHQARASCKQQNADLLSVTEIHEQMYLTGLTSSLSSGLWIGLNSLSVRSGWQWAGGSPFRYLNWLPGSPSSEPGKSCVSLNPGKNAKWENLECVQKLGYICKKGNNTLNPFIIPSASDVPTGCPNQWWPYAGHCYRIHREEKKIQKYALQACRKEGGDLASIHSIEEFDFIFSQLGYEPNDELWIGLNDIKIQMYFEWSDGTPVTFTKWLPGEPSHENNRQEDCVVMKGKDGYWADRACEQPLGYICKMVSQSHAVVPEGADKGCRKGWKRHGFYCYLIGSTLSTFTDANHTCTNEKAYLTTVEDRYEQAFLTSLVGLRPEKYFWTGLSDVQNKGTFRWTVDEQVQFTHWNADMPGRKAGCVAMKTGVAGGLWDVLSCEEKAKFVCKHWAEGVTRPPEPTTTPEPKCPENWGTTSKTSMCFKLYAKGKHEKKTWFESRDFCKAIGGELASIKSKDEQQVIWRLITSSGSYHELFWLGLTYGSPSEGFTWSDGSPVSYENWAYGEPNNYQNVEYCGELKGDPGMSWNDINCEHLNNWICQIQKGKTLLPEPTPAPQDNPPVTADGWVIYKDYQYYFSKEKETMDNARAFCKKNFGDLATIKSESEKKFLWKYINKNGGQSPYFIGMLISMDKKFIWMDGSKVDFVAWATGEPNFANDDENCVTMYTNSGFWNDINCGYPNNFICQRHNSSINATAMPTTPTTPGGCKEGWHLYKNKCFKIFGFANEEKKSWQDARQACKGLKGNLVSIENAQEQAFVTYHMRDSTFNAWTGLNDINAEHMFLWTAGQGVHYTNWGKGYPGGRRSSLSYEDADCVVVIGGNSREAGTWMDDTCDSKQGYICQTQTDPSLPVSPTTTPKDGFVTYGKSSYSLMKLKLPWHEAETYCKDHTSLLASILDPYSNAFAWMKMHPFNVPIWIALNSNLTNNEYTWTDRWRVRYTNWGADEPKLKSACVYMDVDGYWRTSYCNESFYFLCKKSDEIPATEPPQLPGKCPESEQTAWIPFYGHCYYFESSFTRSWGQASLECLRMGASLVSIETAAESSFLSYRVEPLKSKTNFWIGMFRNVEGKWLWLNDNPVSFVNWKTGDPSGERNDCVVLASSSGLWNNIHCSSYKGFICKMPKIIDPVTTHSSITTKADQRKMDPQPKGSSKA

B1: monovalent anti-Macrophage Mannose Receptor nanobody, (m)anti-MMR Nb (VHH)
VHH: QVQLQESGGGLVQPGGSLRLSCAASGNIFSINAIGWYRQAPGKQRELVATITLSGSTNYADSVKGRFSISRDNAKNTVYLQMNSLKPEDTAVYYCNANTYSDSDVYGYWGQGTQVTVSS
notes: anti-MMR nanobody MMRCl1; also called (m)anti-MMR Nbs; MMRCl1; source: E. coli WK6, periplasmic extract, purified (Ni-NTA, SEC); not shown: His6, C-terminal, kept
B1: the Kd was 25 nM.
